Measured values from US10138280B2, “Polypeptides targeting glycosylated MUC2 proteins, methods of synthesis, their nucleic acids and uses thereof” (INSTITUT PASTEUR, priority 2011, dated 2018).

Key:
guinea pig colonic mucus = test: Mucus staining on fixed tissues, guinea pig colon; settings: fixed tissue, 1 μg/mL
Method: (§1) FIGS. 11A-11C. Mucus staining using Cy5-MUB70 on fixed tissues. (FIG. 11A) Guinea pig colon, (FIG. 11B) rabbit ileum and (FIG. 11C) mouse colon were fixed in PFA 4%. Immunofluorescent staining was performed using Cy5-MUB70 (1 μg/mL) (blue). Actin is stained in red (Phall.-RRX), Muc2 is stained in green (α-Muc2). Observations were performed using a confocal microscope. Bar is 50 μm.
Ex vivo human colon samples were obtained from Dr. E. Labruyère (Institut Pasteur) and tissue processing was performed as described previously and stored in serum free RMPI media (surgical procedure is described herein). Human mucinous carcinoma formamide fixed samples were obtained from Dr. T. Lazure (Hôpitaux Universitaires Paris-Sud, Kremlin-Bicêtre) and Pr. I. Sobhani (Hôpital Henri Mondor, Créteil). Rabbit colon and ileum samples were collected on naïve New Zealand white rabbits weighting 2.5-3 kg and fixed in PFA 3%. Same procedure was applied on intestine samples collected on guinea pigs (Charles River) and C57/B6 mice (Janvier).
Following PFA 4% or Carnoy fixation, as indicated, samples were washed in PBS, incubated at 4° C. in PBS containing 12% sucrose for 90 min, then in PBS with 18% sucrose overnight, and frozen in OCT (Sakura) on dry ice. 7 μm sections were obtained using a cryostat CM-3050 (Leica). […]

rabbit ileal mucus = test: Mucus staining on fixed tissues, rabbit ileum; settings: fixed tissue, 1 μg/mL
Method: FIGS. 8A-8D. (FIG. 8A) Cell toxicity of Cy5-MUB70 tested on HT-29-MTX and Hela epithelial cells. Cell survival was assessed using Sytoxgreen dye on cultures exposed to 1 μg/mL Cy5-MUB70 from 0 to 10 h, as indicated. NS indicates P>0.05 (Student's T-test). (FIG. 8B) Rabbit colonic and ileal mucus staining on fixed tissues (PFA 4%), using Cy5-MUB70 (1 μg/mL) (blue). Actin is stained in red (Phall.-RRX). Bar is 50 μm. (FIG. 8C) Human ex vivo colon sample was incubated for 2 h with 1 μg/mL Cy5-MUB70 in a serum-free media. Resulting fluorescent staining was assessed using a two-photons microscope (see Methods). Z-projection, performed using ImageJ software, allows 3D localization of Cy5-MUB70 fluorescence signal. Bar is 100 μm. Colon scheme: firmly (f) and loosely (I) attached colonic mucus layers are represented at the surface of the epithelium (e). (FIG. 8D) Kinetics of colonic mucus with Cy5-MUB70. […] Human tissue autofluorescence is detected in the same red channel as Cy5.
as §1, with “μm. […]” for “μm.”

[1] = test system: human neutrophil (PMN) granules; test: Human neutrophil (PMN) granule staining; type: cell-based
Method: FIG. 14. Staining of individual neutrophiles (white blood cells) in human blood sample. Cy5-MUB70 was incubated on ethanol 100% fixed blood sample. […] (Details are provided on the Figure). […] In particular, granules staining is achieved.
FIG. 15. Staining of individual neutrophiles (white blood cells) purified from fresh human blood sample. Cy5-MUB70 was incubated on PFA 4% fixed neutrophiles (PFA treatment for 15 min, wash 3 times in PBS). Signal was detected as dots distributed in neutrophile cytoplasms. (Staining with Dapi 1:1000 and EB1C5 1:1000 in PBS+10% FCS+0.1% Saponin). […] In particular, granules staining is achieved.
FIG. 29. Identification of Muc2 in neutrophile granules using MUB70-Cy5. Human neutrophil (PMN) granule staining using Cy5-MUB70. PMN were purified from healthy donor blood samples and fixed in the presence of 4% PFA. Fluorescent staining of human colonic mucus was performed by the addition of 1 μg/mL of Cy5-MUB70 (Red) with Dapi (1:100) (Blue) and 1:200 anti-Muc2 antibody (Green). Image acquisition was performed using a fluorescent confocal microscope (see Methods).
FIG. 31. Identification of Muc2 in neutrophile granules. Human neutrophil (PMN) granule staining using Cy5-MUB40-1, Cy5-MUB40-2, Cy5-MUB40-3, Cy5-MUB40-4 peptides. Schematic description of the Cy5-conjugated peptides. PMN were purified from healthy donor blood samples and fixed in the presence of 4% PFA. Fluorescent staining of human colonic mucus was performed by the addition of 1 μg/mL of the Cy5-conjugated peptides (Green) with Dapi (1:100) (Blue) and Phalloidin-RRX (1:1000) (Red). Image acquisition was performed using a fluorescent confocal microscope (see Methods).
The invention has also proven to be useful for the monitoring of neutrophile degranulation events, in particular by using MUB70 and/or MUB40 polypeptides or polypeptides sharing identity with MUB70 and/or MUB40 polypeptides, or fragments thereof, for labelling neutrophile granule(s).

B1: Cy5-MUB70: Cy5-labelled MUB70 polypeptide, labelled via Cy5 maleimide on N-terminal cysteine (conjugate)
peptide: CVHVQYIDGETDQMLRQDDLDGYTDETIPYSTAEGIKKFEGDGYELFKDNFPAGEKFDNDDTNDQFYTVIF
For B1, the colonic mucus staining (guinea pig colonic mucus) was “confirmed”, the ileal mucus staining (rabbit ileal mucus) was “negative results” and the PMN granule staining ([1]; PMN purified from human blood, fixed in 4% PFA, 1 μg/mL) was “binding specifically a neutrophile granule component”. For the same molecule, the “neutrophile staining in human blood sample” value ([1]; ethanol 100% fixed blood sample) was “Signal was detected as diffused in neutrophile cytoplasm”.
